From a protein production outcome set (Wang et al. 2014) come the findings set out here.
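Note: failed if final PepcDB status was selected cloned or expressed and not failed if soluble or beyond.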

This data set is described as follows: label from the status in PepcDB records.
Regarding “MFGLEAIDLARIQFAFTVSFHIIFPAITIGLASYLAVLEGLWLKTNEEVYRDLYHFWSKIFAVNFGMGVVSGLVMAYQFGTNWSHFSDFAGSITGPLLTYEVLTAFFLEAGFLGVMLFGWNRVGPGLHFFATVMVAIGTLISTFWILASNSWMQTPQGFEIVDGRVIPVDWLAVIFNPSFPYRLLHMSVAAFLATAFFVGASAAWHLLRGRDNPAIRKMLSMAMWMALIVAPVQALIGDAHGLNTLEHQPAKIAAMEGHWDNSSGEPTPLILFGWPDMQREETRFKVEIPVLGSLILKHSLTEPIPALKDFPPEDRPNSTVVFWSFRIMAGLGMLMILVGVWSLWLRWRGQDKLFNSKAFLRLTLLMGPSGLIAILAGWFTTEMGRQPWVVYGLMRTADASSAQSVTQMSLTLLTFVVVYFSLFGVGIGYMMRLVRKGPVTHEGRETNPGGAGQKRTPARPLSAAGEGFDEEHDGHAQAADRDQDKRN”, the protein production entry was “failed”.

As for “MYTYKLQDEKPICSEKLKRLYDSVGWWPERKEIDIQKMLKNSIAIGVWKENELIGFARVVSDGVFRAYLEDVVVHESVRNKGIGEKMLTMLLEEISHINIVSLFCGEKLIKFYGQQQFQVTK”, the protein production result is recorded as “failed”.

For the sequence “MAELENPSVMSKLIAFLSSLLERVAESNDLTRRVATQSQRVSVFHGLSRPTITIQSYLERIFKYANCSPSCFVVAYVYLDRFTHRQPSLPINSFNVHRLLITSVMVAAKFLDDLYYNNAYYAKVGGISTKEMNFLELDFLFGLGFELNVTPNTFNAYFSYLQKEMTLLQPLSLVVVPSSRSLITFNDDEASHQKQQQQQLAV”, the protein production entry is reported as “failed”.

With “MDELLEKAKKVREAWDVLRNATTREKNKAIKKIAEKLDERRKEILEANRIDVEKARERGVKESLVDRLALNDKRIDEMIKACETVIGLKDPVGEVIDSWVREDGLRIARVRVPIGPIGIIYESRPNVTVETTILALKSGNTILLRGGSDALNSNKAIVSAIREALKETEIPESSVEFIENTDRSLVLEMIRLREYLSLVIPRGGYGLISFVRDNATVPVLETGVGNCHIFVDESADLKKAVPVIINAKTQRPGTCNAAEKLLVHEKIAKEFLPVIVEELRKHGVEVRGCEKTREIVPDVVPATEDDWPTEYLDLIIAIKVVKNVDEAIEHIKKYSTGHSESILTENYSNAKKFVSEIDAAAVYVNASTRFTDGGQFGFGAEIGISTQRFHARGPVGLRELTTYKFVVLGEYHVRE”, the protein production entry is reported as “not failed”.

For the sequence “MDTAKTKPFDEMFLQDEVIRPIYAEYAAWLQDVPHQQLESKRQEAELLFRRVGITFNVYGEDAGAERLIPFDVVPRILSASEWARLSDGAIQRVKALNMFLHDVYHDQEIIKAGIVPSSILANAQYRPEMFGVDVPGGVYAHIAGVDLVRTGENDFYVLEDNLRTPSGVSYMLENRKMMMRLFPELFRRYPVAPVEHYPQVLLNNLRAVAQAGVHEPTVVLLTPGAYNSAYFEHAFIAQQMGIELVEGQDLFVRNNAVYMRTTEGPKRVDVIYRRIDDDFIDPLSFRPDSMLGVPGLLSVYRNGGVTLANAVGTGVADDKDTYIYVPEMIRFYLGEEPILSNVPTYQLSKADDLKYVLDNLAELVVKEVQGSGGYGMLVGPAASKQELEDFRQRILANPANYIAQPTLALSTCPTLVETGIAPRHVDLRPFVLSGKTVSLVPGALCRVALREGSLVVNSSQGGGTKDTWILKD”, the protein production entry is given as “not failed”.

“PEKLPYLVELSPDGSDSRDKPKLYRLQLSVTEVGTEKFDDNSIQLFGPGIQPHHCDLTNMDGVVTVTPRSMDAETYVDGQRISETTMLQSGMRLQFGTSHVFKFVDP”: the protein production entry is given as “not failed”.

For the sequence “MGLIYKVADQDWEFERIHKLNYKTFVEEIPQHEETKDRVRIDRFHDENTYLICLDEDKLVGMVALRGKRPFSLDYKISNLDFYLQEHGENVYEIRLLSVEREYRNGRALLGLIRFLHRYLLLNGYELALISATTRELPLYEQMGFKSFHTL”, the protein production result is on record as “failed”.

In the case of “MREVNEGASAYPGQRATGESIERGGGGLSVSDLLAKVMTAAAPQPTGSGTESGPGAGPTAGPSLDVDGLAVAVAATAGRYLPGGHLSPDSDFFDAGGTSVHAVELVAELERELGMEIALDDVFADARPRTLARRWLSAGGAPAAHSATPATPEPTAAGVAATGVTAIGATAAGAAVAGATAAGVAATPGLLPLSAAGTRPAPAPSGLPVPSPRTPPAVAATPPPGSGDAPYSTARREDLDQILADLALADRLPWTGAPEPLPPRRILLTGATGFLGSHMLLDLLRHSDAHVYCLVRAADEEAATARLGQALKGYELPWSSEVRRRVTVLPGDIRHPRLGLSDDLWNTLAHELDSVVGVAAAVDFLRGYPSLRQSNVLGALTLAELAATGRPKPLHHISSIAVFNEVGITAMGEDDPLARVDRLVAGYDQTKWTAEVALRRARDHGLLVTAMRPGGIGGHTRTGAYNPQDLSSGLISAFGRFRTVPAFRYLNAAPVDWVSRVAVGVICEPDAWGYDYNLTGVPNTLDDVVQDMALGGMHVRVQDWDEWRTDALARLEADPVPELAFLTRVLRSPTALKLCEATLKGPAAHDDRTAALVEALGLGPAARYDAQAQLRTFERLARDGLARLPHKDDQPYLWFSERTEGGVGPVGAPADTPCSMALTLSIASMYQLVKERRVDVSGELVCAAVHPEPLTVERGDVWIRPEEGIPEQHGMRHQLLRYRLELRDTDGGHWWLEGHKYARARRDVWRQTRALTVEIGRAGEPARLTGEVVVPADSYVRDQIDGIKVDPRLTSQEKRAAKLTWLAWFGLEVGRGLLGPFARVAADLLDLRRNPTLTERNR”, the protein production result was “failed”.

For the sequence “MIGFIGSVFSPWYRWSGRKEPQNHCCLNVATYGPGGRFTMTDRGRAALRQSPDTLTVGPSRMHWTGTQLIVEVNEISSPPLVSPVKGRIVLTPTGITDVEVTLKDDGSHIWRPFAPTARIEVDLTQGHRWHGHGYFDANFGTAALEADFRFWTWGRYPVADGAACFYDATRRDGSRLELGLHVAADGRARLIQPPPEARFARSRWLVERHTPADPGTRPRQVMSMLDAPFYSRAMVETTVFGQKTVGVHEALDLRRFRSPLLMPMLAVRVPRRP”, the protein production result is listed as “failed”.

Consider “MILLSFNILVLYQNVQISLSSGICFRLYSEVLSYILIYVAVWLTLYGIDLLNTVYGASDSRSVSKSAVSKRTLAVLPCSSCRINKRCIENGHLQSATNKTSFVC”, for which the protein production entry was “failed”.

Take “MGENYKFFNHKDCEFFPCHKTNKPEEFNCLFCYCPLYALGENCGGNFKYTDKGIKDCSSCILPHKKDNYNYIMSKFQDLVKITSKKLEHHHHHH”: the protein production entry was “failed”.

As to “ARLVQLSRHSIAFPSPEGALREPNGLLALGGDLSPARLLMAYQRGIFPWFSPGDPILWWSPDPRAVLWPESLHISRSMKRFHKRSPYRVTMNYAFGQVIEGCASDREEGTWITRGVVEAYHRLHELGHAHSIEVWREDELVGGMYGVAQGTLFCGESMFSRMENASKTALLVFCEEFIGHGGKLIDCQVLNDHTASLGACEIPRRDYLNYLNQMRLGRLPNNFWVPRCLFSPQE”, the protein production result is given as “not failed”.

Consider “MRERTEARRRRIEEVLRRRQPDLTVLLENVHKPHNLSAILRTCDAVGVLEAHAVNPTGGVPTFNETSGGSHKWVYLRVHPDLHEAFRFLKERGFTVYATALREDARDFREVDYTKPTAVLFGAEKWGVSEEALALADGAIKIPMLGMVQSLNVSVAAAVILFEAQRQRLKAGLYDRPRLDPELYQKVLADWLRK”, for which the protein production result is on record as “not failed”.

Turning to “MYVREVKDGKVVVAKARTSACGSCPAKNICLSDNEIKLEIDWCGEDLKPGDEVVVDIPEYDPLKVSTLVYFLPLVIFAVTVITGYLFRLKDWVTFVLALGSVFAYYSLFRFRRKDRKPPRILRKVS”, the protein production entry is “failed”.

Regarding “MILPEYNETDFMQAVINAAPTPIFYKDAQGRYLGCNKAFEEYIGLNREQLIGKSVLELFDDELARTYFEADNALFERKGTQIYEAKVEYADGTTHDVMFHKAYFHAEGIEGIVGSILDITERKKAEKSLEQLALSDSLTGLDNRYSLMKSLKHSLLRQHRENFTLAFLMLDLDGFKQINDNYGHPVGDALLIEVANKLKNHFRESDVIARVGGDEFSVILENIHSTESLIVLANNILAEFLKPFVIDNNKFTIGISIGIATSSFSECSSEDIIKHADAALYQVKNSGKGSYHLTVVN”, the protein production entry is on record as “failed”.

As for “MDIKEIDQSSVITPDGQRISFILITPVNMSVLSDEVVAGRISALANILTSIENLQILCLNASQSYEKNKEHLAAQMKTETNEVLAELDRKDIEYLDDIRISMATGREFAFAVRFKKNIGRPQQEQTLKRLLLILLEAGFTARIAEEQELKGILAIYFAQDIYNDYWPDFDGEEILSPAEAKQEKSFLELIAPSIIDFRRQRYYVCGNTQRTVWAVRGYPTTTKDQTIFRELGEKDGVTLHIYTRPVGSYETNKILERAERRNRHMLNNSSRIKEKVEAESNMQDVQLLIENMHRSKEPFLHCAVFIEMAAGNDKALELLQGDVAAILNRHKILYDKLFLQQKEGMISAMPTGQNLFENQFERVLPASSVANMFPFSYSGKTDPQGMYIGRDANGSNIIVNFDQRGQDKTNGHIIILGNSGEGKSFLLKILSCIFRQSRKNLYILDPENEYKELTEALGGTYMDMMTGKYIINPLEPRLWNQEPVSELESPDTPKAFFKPLRINQHIAFLRDFFSAYKPFPTEQLDTLEIMLELLYKEFHITEETDYSRLRSSDYPILTDLYKLMTRELENYEEKAETGLVVYRKETLRELCLGLHGICTGAESVYFNGYTNIPNAKHIDFGVKDMLSTNQSLSNAMYFNILSFMSHKFLTEGDTNICCDELHELLKNRIAISYLLSFIKRGRKRGSNVILASQNVSDFFLPEIVEYTKPLLSIPTHRFLFYPGSCDTEEYKRVLGVSDSEYRVIQNPNRGHCLYSCGNERYHLHVIAPKYKKALFGTAGGALEHHHHHH”, the protein production result is on record as “failed”.

Regarding “MTTIAILSDIHGNMTAFSAVIQDAKAHQADEYWFLGDLFLPGPGSDKLWATLHGLKPTHIVKGNWDDDLFWVLDGPVDLSQPTDVYFSRLVAYLWPHLTAENLATIRNWPLHEVFEQDGLIVSLAHNLPDKNHGHALYPDQPQLNFDQIAPDSQIDLAVYGHTHQQLLRYTSNGQVILNPGSIGQAYSPRPHLQTTTYADYALLQLNDGAITDLDLRQVPYDVSAELSLAKQQQLPYPEVYTKLRHTGATSTHNAAYLKQFEQRHDYQQEVAEFLHKYRHQHLEHHHHHH”, the protein production result is given as “failed”.

Take “IQRSIERALDFRKEVQRLREESDGWFFDIWQPEAVDKAECWPVAPGEDWHGFKDADADHMYLDPVKVTILTPGMDEQGNMDEEGIPAALVAKFLDERGVVVEKTGPYNLLFLFSIGIDKTRAMGLLRGLTEFKRAYDLNLRVKNMLPDLYAEDPDFYRNMRIQDLAQGIH”: the protein production result is on record as “failed”.

In the case of “MKVNETGVEELNPYPDRPGERDCQFYLRTGLCGYGSSCRYNHPTHLPQDVAYYKEELPERIGQPDCEYFLKTGACKYGPTCKYHHPKDRNGAQPVMFNVIGLPMRLGEKPCPYYLRTGTCRFGVACKFHHPQPDNGHSTAYGMSSFPAADLRYASGLTMMSTYGTLPRPQVPQSYVPILVSPSQGFLPPQGWAPYMAASNSMYNVKNQPYYSGSSASMAMAVALNRGLSESSDQPECRFFMNTGTCKYGDDCKYSHPGVRISQPPPSLINPFVLPARPGQPACGNFRSYGFCKFGPNCKFDHPMLPYPGLTMATSLPTPFASPVTTHQRISPTPNRSDSKSLSNGKPDVKKESSETEKPDNGEVQDLSEDASSP”, the protein production entry is listed as “failed”.

Consider “MAMRELSQLNRDSDGDEEVWVKHYSSNHQILLVGEGDFSFSHSLATLFGSASNICASSLDSYDVVVRKYKKARSNLKTLKRLGALLLHGVDATTLHFHPDLRYRRFDRVIFNFPHAGFHGRESDSSLIRKHRELVFGFFNGASRLLRANGEVHVSHKNKAPFSEWNLEELASRCFLVLIQRVAFEKNNYPGYENKRGDGRRCDQPFLLGECSTFKFRFSRVAKELYAEKVRSREVKERESMYPEAILNKQPVSFDHRYRLQTEFEAIAGTITLGKSKILWLSQEKGHLHWIFVTTKNVDVYSSKIPESPERHRLLCQDFPVQASQEPLSEYSNRWSGVSREIYNWEVRRMSTSTSFPHPYTGESQERSLSRQSNLITHPPQHW”, for which the protein production entry is listed as “failed”.
